Laboratory results taken from patent publication US8440629B2, “Cyclic receptor-associated protein (RAP) peptides” (Raptor Pharmaceuticals Inc., priority 2007, dated 2013).

Legend:
[1] = target: T1, LRP1 CR3-5 (Homo sapiens, UniProt Q07954); experiment: Solid phase binding assay; conditions: solid-phase assay
T1 construct: made in house; host or cells: E. coli BL21(DE3) CodonPlus-RIPL, pET30(+)a
Method: (§1) All expression constructs were sequenced to verify insert sequences and the junctions with the expression vector. Each plasmid was then used to transform BL21(DE3) CodonPlus-RIPL™ cells (Stratagene). Expression of the CR proteins was induced in logarithmic growth-phase cells grown in LB supplemented with 34 μg/mL chloramphenicol, 12.5 μg/mL tetracycline and 15 μg/mL kanamycin by addition of 2 mM IPTG, followed by reduction in incubator temperature to 32° C. and incubation for 4 hours with agitation at […]. Cells were pelleted and resuspended, at 3.5% of the initial culture volume in 10 mM Tris-HCl pH 8, 100 mM NaH2PO4, 8M Urea. Resuspended cells were then frozen in liquid nitrogen, rapidly thawed to 37° C. and sonicated for 10 seconds at an amplitude setting of 60 using a Cole-Parmer CP-130 ultrasonic processor connected to a 3 mm probe. This procedure was repeated three times to effect complete lysis of the cells. Lysates were clarified by spinning twice at 10,000×g in a Sorvall RC-5 centrifuge for 20 minutes at 15° C. Ni-NTA columns (Qiagen Superflow™, 1.5 mL packed bed) were used to purify the CR proteins. Briefly, the resin was equilibrated with two column volumes of lysis buffer. The clarified lysate was then supplemented to 20 mM with imidazole and incubated with the equilibrated Ni-NTA resin overnight at 4° C. The flow-through was discarded. Columns were washed once with one column volume of lysis buffer and then three times with one column volume of TBS pH 8 supplemented with 20 mM imidazole. CR-loaded beads were then removed from the column and CR proteins eluted by incubating at room temperature for 30 minutes with one column volume of the same buffer containing 200 mM imidazole. This step was repeated once and the eluates pooled. Eluted CR protein solutions were then supplemented to 2 M urea, 10 mM CaCl2 and 5 mM DTT. Purified, denatured CR protein solutions were transferred to 3,500 MWCO Slide-A-Lyzer™ (Pierce) cassettes and sequentially dialyzed against a 200-fold excess of 50 mM Tris-HCl pH 8.5, 10 mM CaCl2, 1 mM reduced glutathione, 0.5 mM oxidized glutathione at room temperature overnight and then against TBS supplemented with 5 mM CaCl2 at 4° C. overnight. Protein concentrations were determined by Bradford assay and purity confirmed by SDS-PAGE with Coomassie Brilliant Blue staining.
(§2) Purified, refolded CR protein (1 μg) was bound to Nunc Maxisorp™ 96-well plates in TBS pH 8 supplemented with 5 mM CaCl2 (TBSC) overnight at 4° C. Wells were washed with TBSC and then blocked with TBSC containing 2% bovine serum albumin (BSA). RAP ligands were then incubated with the immobilized receptor at a range of concentrations for 2 hours in the above blocking buffer supplemented with 0.05% Tween-20 at room temperature. Control wells contained no added ligand. As an additional control, to determine whether the absence of calcium affected binding, 10 mM EGTA was included in the incubation medium for some samples. Wells were washed with TBSTC and bound ligands detected with polyclonal anti-RAP (BP41/42, 1:1,000, BioMarin). Excess primary antibody was removed and wells washed before incubation with the secondary antibody, HRP-conjugated goat anti rabbit IgG (Bio-Rad). After washing, TMB substrate solutions (Bio-Rad) were added to detect HRP. Color development was stopped with 1N HCl. Absorption at 450 nm was measured with a microplate spectrophotometer (Molecular Devices). Data were plotted and Kd values derived by non-linear regression with the assumption of single-site binding (GraphPad Prism).
From the large number of CR pairs with unique combinations of amino acids at A, C, A′ and C′ within the calcium-binding loop of each CR, CR pairs or triplets were selected to test their binding to RAP d3 (FIG. 2). An additional pair derived from the FDC-8D6 protein was tested, designated 8D6 CR12, having the sequence ([…]) (SEQ ID NO: 91). […]

[2] = target: T2, LRP2 CR89 (Homo sapiens, UniProt P98164); experiment: Solid phase binding assay; conditions: solid-phase assay
T2 construct: two CR pairs from LRP2 (CR89, CR3435); made in house; host or cells: E. coli BL21(DE3) CodonPlus-RIPL, pET30(+)a
Method: as §1, §2

T2 sequence (P98164 1022-1105 limits assumed): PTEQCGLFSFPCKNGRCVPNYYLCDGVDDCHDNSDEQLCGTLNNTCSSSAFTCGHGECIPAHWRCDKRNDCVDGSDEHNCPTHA
T1 sequence (Q07954 852-973): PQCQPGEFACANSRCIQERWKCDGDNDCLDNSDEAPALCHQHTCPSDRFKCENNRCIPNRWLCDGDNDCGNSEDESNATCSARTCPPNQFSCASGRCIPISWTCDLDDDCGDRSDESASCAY

Molecule	binding to LRP1 CR3-5 (in words) [1]	binding to LRP2 CR89 (in words) [2]
MegaRAP1 d3 T213S: MegaRAP1 d3 revertant T213S (protein) LDRLRRVSHQGYSTEAKFEEPRVIDLWDLAQSANLTDKELEAFREELKYFKAKIEAHNHYQKQLEIAHEELRHAESVGDGERVSRSREKHALLEGRTKELGYTVKKHLQDLSGRISRAR	unable to detectably bind	slightly improved affinities
RAP d3 K270E: RAP d3 forward mutant K270E (protein) LDRLRRVSHQGYSTEAEFEEPRVIDLWDLAQSANLTDKELEAFREELKHFEAKIEKHNHYQKQLEIAHEELRHAESVGDGERVSRSREKHALLEGRTKELGYTVKKHLQDLSGRISRAR	failed to measurably bind	
MegaRAP1 d3 K251E: MegaRAP1 d3 revertant K251E (protein) LDRLRRVSHQGYTTEAKFEEPRVIDLWDLAQSANLTDKELEAFREELKYFEAKIEAHNHYQKQLEIAHEELRHAESVGDGERVSRSREKHALLEGRTKELGYTVKKHLQDLSGRISRAR	failed to bind	failed to bind
MegaRAP1 d3 A256K: MegaRAP1 d3 revertant A256K (protein) LDRLRRVSHQGYTTEAKFEEPRVIDLWDLAQSANLTDKELEAFREELKYFKAKIEKHNHYQKQLEIAHEELRHAESVGDGERVSRSREKHALLEGRTKELGYTVKKHLQDLSGRISRAR	failed to bind	failed to bind
MegaRAP1 d3 Y249H: MegaRAP1 d3 revertant Y249H (protein) LDRLRRVSHQGYTTEAKFEEPRVIDLWDLAQSANLTDKELEAFREELKHFKAKIEAHNHYQKQLEIAHEELRHAESVGDGERVSRSREKHALLEGRTKELGYTVKKHLQDLSGRISRAR	failed to bind	failed to bind
MegaRAP1 d3 K217E: MegaRAP1 d3 revertant K217E (protein) LDRLRRVSHQGYTTEAEFEEPRVIDLWDLAQSANLTDKELEAFREELKYFKAKIEAHNHYQKQLEIAHEELRHAESVGDGERVSRSREKHALLEGRTKELGYTVKKHLQDLSGRISRAR	unable to detectably bind	slightly improved affinities
